Results published in patent US20110008436A1 (published 2011).
Where no end group is shown, it is not given here.

Key:
[1] = molecular target: T1, Substantially sericin-depleted silk fibroin from Bombyx mori (dissolved in 9.3 M LiBr, dialysed, then gelled … (Bombyx mori, UniProt P05790 22-5263; P21828 17-262, limits assumed); experiment: HPLC of 23RGD extracted from lyophilised silk precipitate; group called RLO in this sentence (0.49 mg/mL 23RGD per paragraph 318, which is RVLO in Table 10)
T1 construct: also called silk molecule; depolymerized silk fibroin
Experimental: (§1) The amount of 23RGD bound to silk precipitates was quantified by analyzing lyophilized samples. The 23RGD was removed by incubating the samples for 4 hours in a dissolving buffer, then centrifuging on an Eppendorf 5415C (Eppendorf North America Inc., Westbury, N.Y.) at 16,000 g (RCF) for 30 minutes and the supernatant collected. This supernatant was then centrifuged in identical fashion and the final supernatant collected for HPLC analysis using a PerkinElmer Series 200 (PerkinElmer, Waltham, Mass.). The 23RGD peak areas from each curve were compared against a standard curve. 1-Way ANOVA was used to test for significant differences caused by changing silk concentration, 23RGD concentration, and accelerant volume. A Student's t-test was used to test the significance of differences resulting from altered ethanol concentrations.

[2] = molecular target: T1, Substantially sericin-depleted silk …; experiment: HPLC of 23RGD extracted from lyophilised silk precipitate; AVHI formulation (high accelerant volume, calculated ratio 10.0)
Experimental: as §1

[3] = molecular target: T1, Substantially sericin-depleted silk …; experiment: Inferred by the filing from the HPLC ratios of the precipitates
Experimental: as §1

[4] = molecular target: T1, Substantially sericin-depleted silk …; experiment: HPLC of 23RGD extracted from lyophilised silk precipitate; SCLO formulation (low silk concentration, calculated ratio 6.7)
Experimental: as §1

[5] = molecular target: T1, Substantially sericin-depleted silk …; experiment: HPLC of 23RGD extracted from lyophilised silk precipitate; SCVLO formulation (very low silk concentration, calculated ratio 10.0)
Experimental: as §1

[6] = molecular target: T1, Substantially sericin-depleted silk …; experiment: HPLC of 23RGD extracted from silk precipitate; ECLO formulation (80% ethanol accelerant), against the calculated ratio
Experimental: as §1

[7] = molecular target: T1, Substantially sericin-depleted silk …; experiment: HPLC of 23RGD extracted from lyophilised silk precipitate; BASE formulation (calculated ratio 5.0)
Experimental: as §1

[8] = molecular target: T1, Substantially sericin-depleted silk …; experiment: HPLC of 23RGD extracted from silk precipitate, against the calculated ratio
Experimental: as §1

[9] = molecular target: T1, Substantially sericin-depleted silk …; experiment: HPLC of 23RGD extracted from lyophilised silk precipitate; formulation labelled 0.6S 3R 10:1 (2.45 mg/mL 23RGD in 90% ethanol)
Experimental: as §1

[10] = molecular target: T1, Substantially sericin-depleted silk …; experiment: HPLC of 23RGD extracted from lyophilised silk precipitate; AVLO formulation (low accelerant volume, calculated ratio 2.5)
Experimental: as §1

[11] = molecular target: T1, Substantially sericin-depleted silk …; experiment: HPLC of 23RGD extracted with dissolving buffer from the rinsed 23RGD-enhanced silk gel, against a 23RGD standard curve
Excerpt: 23RGD-infused gels were studied to quantify the amount of 23RGD bound to the silk-hydrogel device as well as the quantity of free 23RGD which might be rinsed free of the device under relevant conditions. Briefly, samples of 23RGD-infused gel were cast and rinsed according to the methods above, with samples of rinse buffer being collected from each rinse for subsequent analysis by HPLC. Additionally, subsequent to the last rinse, the gel samples were mechanically pulverized by means of a stainless steel stirring rod and the adsorbed 23RGD removed by incubation for 4 hours in a dissolving buffer. This mixture of gel and solvent was then centrifuged on an Eppendorf 5415C at 16,000 g RCF for 30 minutes. The supernatant was collected and centrifuged another 30 minutes at 16,000 g RCF after which time the supernatant was collected in a sample vial for HPLC analysis. Samples of rinse buffer from the first and last rinse were centrifuged in the same fashion after being diluted with the same solvent the gel was extracted with in a volumetric ratio of 1 part rinse buffer to 4 parts solvent. To ensure 23RGD-hydrogel device rinse-exposed surface area was not a limiting factor, the same rinse and extraction process was performed upon devices pulverized after gelation and before rinsing.

[12] = molecular target: T1, Substantially sericin-depleted silk …; experiment: HPLC of 23RGD extracted from lyophilised silk precipitate; RHI formulation (high 23RGD, calculated ratio 10.0)
Experimental: as §1

[13] = molecular target: T1, Substantially sericin-depleted silk …; experiment: HPLC of 23RGD extracted from lyophilised silk precipitate; group called RMED (1.47 mg/mL 23RGD per paragraph 318, which is RLO in Table 10)
Experimental: as §1

## GRGDIPASSKGGGGSRLLLLLLR-NH2 (also called 23RDG) [23RGD peptide (amphiphilic peptide GRGDIPASSKG4SRL6R-NH2)]
[1]
  23RGD:silk molar ratio bound: 1.1 mol 23RGD per mol silk
[2]
  23RGD:silk molar ratio bound: 10.5 mol 23RGD per mol silk
[3]
  apparent saturation, 23RGD:silk ratio: ~10 mol 23RGD per mol silk
[4]
  23RGD:silk molar ratio bound: 9.9 mol 23RGD per mol silk
[5]
  23RGD:silk molar ratio bound: 11 mol 23RGD per mol silk
[6]
  fold of the expected (calculated) bound 23RGD: ~1.5 fold
[7]
  23RGD:silk molar ratio bound: 8.7 mol 23RGD per mol silk
[8]
  fold of the expected (calculated) bound 23RGD: ~2 fold
[9]
  23RGD:silk molar ratio bound: ~10 mol 23RGD per mol silk
[10]
  23RGD:silk molar ratio bound: 5.2 mol 23RGD per mol silk
[11]
  23RGD:silk molar ratio bound: 3.35 mol 23RGD per mol silk
[12]
  23RGD:silk molar ratio bound: 10.7 mol 23RGD per mol silk
[13]
  23RGD:silk molar ratio bound: 6.95 mol 23RGD per mol silk
